This note sets out measurements from FireProtDB.

For the data set the following is noted: Thermal, whole UniProt chain shown.
[1] abbreviates: Glycine max, pH 7, DSC, HEPES/MOPS/ACES/Tris/triethanolamine/phosphate 17 mM/17 mM/17 mM/10 mM/13 mM/10 mM.
[2] abbreviates: Bos taurus, pH 6.5, Absorbance, None, reversible: no.
[3] abbreviates: Bos taurus, pH 7.4, Absorbance, phosphate, reversible: no.

B1: Tryptophan synthase alpha chain wild type, P0A877 (protein)
chain: MERYESLFAQLKERKEGAFVPFVTLGDPGIEQSLKIIDTLIEAGADALELGIPFSDPLADGPTIQNATLRAFAAGVTPAQCFEMLALIRQKHPTIPIGLLMYANLVFNKGIDEFYAQCEKVGVDSVLVADVPVEESAPFRQAALRHNVAPIFICPPNADDDLLRQIASYGRGYTYLLSRAGVTGAENRAALPLNHLVAKLKEYNAAPPLQGFGISAPDQVKAAIDAGAAGAISGSAIVKIIEQHINEPEKMLAALKVFVQPMKAATRS
What is called Tm is the temperature at the midpoint of the melting transition. Regarding B1, the Tm (Escherichia coli (strain K12), pH 8.98, DSC, sodium tetraborate 1 mM) was found to be 54.2 °C.

B2: Trypsin inhibitor B wild type, P01071 (protein)
chain: DFVLDNEGNPLSNGGTYYILSDITAFGGIRAAPTGNERCPLTVVQSRNELDKGIGTIISSPFRIRFIAEGNPLRLKFDSFAVIMLCVGIPTEWSVVEDLPEGPAVKIGENKDAVDGWFRIERVSDDEFNNYKLVFCTQQAEDDKCGDIGISIDHDDGTRRLVVSKNKPLVVQFQKVDKESL
In the case of B2, under setting [1], the Tm came to 59 °C, the “heat capacity change of unfolding” value turned out to be 2.63 kcal/mol/K and the “unfolding enthalpy (calorimetric)” value came out at 103 kcal/mol.

B3: Beta-lactoglobulin wild type, P02754 (protein)
chain: MKCLLLALALTCGAQALIVTQTMKGLDIQKVAGTWYSLAMAASDISLLDAQSAPLRVYVEELKPTPEGDLEILLQKWENGECAQKKIIAEKTKIPAVFKIDALNENKVLVLDTDYKKYLLFCMENSAEPEQSLACQCLVRTPEVDDEALEKFDKALKALPMHIRLSFNPTQLEEQCHI
As for B3, the midpoint of thermal melting (Tm) is, setting by setting: (Bos taurus, pH 4, DSC, Unknown) 82 °C; under setting [2], 80.1 °C; under setting [3], 65.9 °C. Further, the “unfolding enthalpy (van 't Hoff)” value is, setting by setting: under setting [2], 55.5 kcal/mol; under setting [3], 39.9 kcal/mol.
